Measurements taken from patent US20220153847A1 (Chugai, published 2022).

T1: HLA-DR on Ba/F3 cells (human, UniProt P01903 26-216; P79483 30-227, limits assumed)
T1 construct: whole, on cells; also called Ba/F3-HLA-DR
T1 MHC II alpha: not shown
T1 MHC II beta: not shown

T2: HLA-DQ5.1 on Ba/F3 cells (human, limits assumed)
T2 construct: whole, on cells; also called Ba/F3-HLA-DQ5.1
T2 MHC II alpha: not shown
T2 MHC II beta: not shown

T3: HLA-DQ6.3 on Ba/F3 cells (human, UniProt P01920 33-230, limits assumed)
T3 construct: whole, on cells; also called Ba/F3-HLA-DQ6.3
T3 MHC II alpha: not shown
T3 MHC II beta: not shown

T4: HLA-DQ7.3 on Ba/F3 cells (human, UniProt P01909 24-216; P01920 33-230, limits assumed)
T4 construct: whole, on cells; also called Ba/F3-HLA-DQ7.3
T4 MHC II alpha: not shown
T4 MHC II beta: not shown

T5: HLA-DQ2.2 on Ba/F3 cells (human, UniProt P01909 24-216, limits assumed)
T5 construct: whole, on cells; also called Ba/F3-HLA-DQ2.2
T5 MHC II alpha: not shown
T5 MHC II beta: not shown

T6: HLA-DQ8 on Ba/F3 cells (human, UniProt P01909 24-216; P01920 33-230, limits assumed)
T6 construct: whole, on cells; also called Ba/F3-HLA-DQ8
T6 MHC II alpha: not shown
T6 MHC II beta: not shown


How the values were obtained:
HLA-DR on Ba/F3 cells = target: T1, HLA-DR on Ba/F3 cells; assay: FACS on Ba/F3-HLA-DR cells, single antibody concentration, goat F(ab')2 anti-human IgG-PE
HLA-DP on Ba/F3 cells = target: T7, HLA-DP on Ba/F3 cells (human, UniProt P20036 29-222; P04440 30-225, limits assumed); assay: FACS on Ba/F3-HLA-DP cells, single antibody concentration, goat F(ab')2 anti-human IgG-PE
T7 construct: whole, on cells; also called Ba/F3-HLA-DP
T7 sequence (P20036 29-222 limits assumed, chain 1 of 4, other chains not shown): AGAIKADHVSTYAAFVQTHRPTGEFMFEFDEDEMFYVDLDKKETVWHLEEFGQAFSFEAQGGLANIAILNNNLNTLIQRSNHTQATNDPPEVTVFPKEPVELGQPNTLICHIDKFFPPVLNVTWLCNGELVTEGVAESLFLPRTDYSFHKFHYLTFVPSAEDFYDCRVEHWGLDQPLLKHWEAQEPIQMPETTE
T7 sequence (P04440 30-225 limits assumed, chain 2 of 4, other chains not shown): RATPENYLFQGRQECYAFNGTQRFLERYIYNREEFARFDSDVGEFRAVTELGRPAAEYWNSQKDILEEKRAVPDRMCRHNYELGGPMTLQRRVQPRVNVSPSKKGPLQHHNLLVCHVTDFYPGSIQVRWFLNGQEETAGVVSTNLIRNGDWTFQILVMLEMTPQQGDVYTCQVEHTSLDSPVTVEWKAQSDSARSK

[1] = target: DQ2.5/alpha 1 gliadin peptide on IHW9023 cells (human); assay: cell-based or functional assay
[2] = target: DQ2.5/alpha 1b gliadin peptide on IHW9023 cells (human); assay: cell-based or functional assay
[3] = target: DQ2.5/gamma 1 gliadin peptide on IHW9023 cells (human); assay: cell-based or functional assay
[4] = target: DQ2.5/BC hordein peptide on IHW9023 cells (human); assay: cell-based or functional assay
[5] = target: DQ2.5/gamma 4a gliadin peptide on IHW9023 cells (human); assay: cell-based or functional assay
[6] = target: DQ2.5/omega 1 gliadin peptide on IHW9023 cells (human); assay: cell-based or functional assay
[7] = target: DQ2.5/omega 2 gliadin peptide on IHW9023 cells (human); assay: cell-based or functional assay
[8] = target: DQ2.5/alpha 2 gliadin peptide on IHW9023 cells (human); assay: cell-based or functional assay
HLA-DQ5.1 on Ba/F3 cells = target: T2, HLA-DQ5.1 on Ba/F3 cells; assay: FACS on Ba/F3-HLA-DQ5.1 cells, single antibody concentration, goat F(ab')2 anti-human IgG-PE
HLA-DQ6.3 on Ba/F3 cells = target: T3, HLA-DQ6.3 on Ba/F3 cells; assay: FACS on Ba/F3-HLA-DQ6.3 cells, single antibody concentration, goat F(ab')2 anti-human IgG-PE
[9] = target: T8, HLA-DQ2.5/33mer gliadin peptide complex on Ba/F3 cells (human); assay: FACS, Ba/F3 cells; IC17=0%, DQN0139bb//IC17=100%;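 further: flow cytometry binding of anti-HLA-DQ antibodies at 5 µg/mL, incubated 30 min at room temperature with Ba/F3 lines presenting HLA-DQ/peptide complexes; antibody tested at 5 microgram/mL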
T8 construct: whole, on cells; also called Ba/F3-HLA-DQ2.5/33mer gliadin
Description: (§1) The binding of anti-HLA-DQ antibodies to Ba/F3-HLA-DQ2.5, Ba/F3-HLA-DQ2.2, Ba/F3-HLA-DQ7.5, Ba/F3-HLA-DQ8, Ba/F3-HLA-DQ5.1, Ba/F3-HLA-DQ6.3, Ba/F3-HLA-DQ7.3, Ba/F3-HLA-DR, Ba/F3-HLA-DP, Ba/F3-HLA-DQ2.5/CLIP, Ba/F3-HLA-DQ2.5/HBV, Ba/F3-HLA-DQ2.5/Salmonella, Ba/F3-HLA-DQ2.5/TPO, Ba/F3-HLA-DQ2.5/M. bovis, Ba/F3-HLA-DQ2.5/alpha 1 gliadin, Ba/F3-HLA-DQ2.5/alpha 2 gliadin, Ba/F3-HLA-DQ2.5/gamma 1 gliadin, Ba/F3-HLA-DQ2.5/gamma 2 gliadin, Ba/F3-HLA-DQ2.5/omega 1 gliadin, Ba/F3-HLA-DQ2.5/omega 2 gliadin, Ba/F3-HLA-DQ2.5/BC hordein, Ba/F3-HLA-DQ2.5/alpha 3 gliadin, Ba/F3-HLA-DQ2.5/alpha 1b gliadin, Ba/F3-HLA-DQ2.5/gamma 4b gliadin, Ba/F3-HLA-DQ2.5/avenin 1, Ba/F3-HLA-DQ2.5/avenin 2, Ba/F3-HLA-DQ2.5/avenin 3, Ba/F3-HLA-DQ2.5/hordein 1, Ba/F3-HLA-DQ2.5/hordein 2, Ba/F3-HLA-DQ2.5/secalin 1, Ba/F3-HLA-DQ2.5/secalin 2, Ba/F3-HLA-DQ2.5/14mer 1, Ba/F3-HLA-DQ2.5/33mer gliadin, Ba/F3-HLA-DQ2.5/26mer gliadin, was tested. 5 microgram/mL of each of the anti-HLA-DQ antibodies was incubated with each cell line for 30 minutes at room temperature and washed with FACS buffer (2% FBS, 2 mM EDTA in PBS).

HLA-DQ2.5 on Ba/F3 cells = target: T9, HLA-DQ2.5 on Ba/F3 cells (human, UniProt P01909 24-216, limits assumed); assay: FACS, Ba/F3 cells; IC17=0%, DQN0139bb//IC17=100%;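 further: flow cytometry binding of anti-HLA-DQ antibodies at 5 µg/mL, incubated 30 min at room temperature with Ba/F3 lines presenting HLA-DQ/peptide complexes; antibody tested at 5 microgram/mL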
T9 construct: whole, on cells; also called Ba/F3-HLA-DQ2.5
Description: as §1

HLA-DQ7.3 on Ba/F3 cells = target: T4, HLA-DQ7.3 on Ba/F3 cells; assay: FACS, Ba/F3 cells; IC17=0%, DQN0139bb//IC17=100%;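 further: flow cytometry binding of anti-HLA-DQ antibodies at 5 µg/mL, incubated 30 min at room temperature with Ba/F3 lines presenting HLA-DQ/peptide complexes; antibody tested at 5 microgram/mL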
Description: as §1

HLA-DQ2.2 on Ba/F3 cells = target: T5, HLA-DQ2.2 on Ba/F3 cells; assay: FACS, Ba/F3 cells; IC17=0%, DQN0139bb//IC17=100%;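 further: flow cytometry binding of anti-HLA-DQ antibodies at 5 µg/mL, incubated 30 min at room temperature with Ba/F3 lines presenting HLA-DQ/peptide complexes; antibody tested at 5 microgram/mL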
Description: as §1

HLA-DQ8 on Ba/F3 cells = target: T6, HLA-DQ8 on Ba/F3 cells; assay: FACS, Ba/F3 cells; IC17=0%, DQN0139bb//IC17=100%
Description: as §1

HLA-DQ7.5 on Ba/F3 cells = target: T10, HLA-DQ7.5 on Ba/F3 cells (human, UniProt P01909 24-216; P01920 33-230, limits assumed); assay: FACS, Ba/F3 cells; IC17=0%, DQN0139bb//IC17=100%
T10 construct: whole, on cells; also called Ba/F3-HLA-DQ7.5
Description: as §1

[10] = target: HLA-DQ2.5/33mer gliadin peptide on IHW9088 cells (human); assay: cell-based or functional assay

Row | Binder | binding result (HLA-DR on Ba/F3 cells) | binding result (HLA-DP on Ba/F3 cells) | IC50, Jurkat NFAT-Luc T cell activation [1] | IC50, Jurkat NFAT-Luc T cell activation [2] | IC50, Jurkat NFAT-Luc T cell activation [3] | IC50, Jurkat NFAT-Luc T cell activation [4] | IC50, Jurkat NFAT-Luc T cell activation [5] | IC50, Jurkat NFAT-Luc T cell activation [6] | IC50, Jurkat NFAT-Luc T cell activation [7] | IC50, Jurkat NFAT-Luc T cell activation [8] | binding result (HLA-DQ5.1 on Ba/F3 cells) | binding result (HLA-DQ6.3 on Ba/F3 cells) | % MFI [9] | % MFI (HLA-DQ2.5 on Ba/F3 cells) | % MFI (HLA-DQ7.3 on Ba/F3 cells) | % MFI (HLA-DQ2.2 on Ba/F3 cells) | % MFI (HLA-DQ8 on Ba/F3 cells) | % MFI (HLA-DQ7.5 on Ba/F3 cells) | IC50 (read off the curve) [10]
1 | DQN0344xx//DQN0385ee (bispecific antibody, human IgG1, kappa) heavy 1: QSLEESGGGLVKPGGTLTLTCTASGFSFSSSYWMCWVRQAPGKGLEWVACVYGGSDTTYYASWTKGRFTISKGSSTTVALQVTSLTAADTATYFCARDPLNYYYYGELNLWGPGTLVTVSSASTKGPSVFPLAPSSKSTSGGTAALGCLVKDYFPEPVTVSWNSGALTSGVHTFPAVLQSSGLYSLSSVVTVPSSSLGTQTYICNVNHKPSNTKVDKRVEPKSCDKTHTCPPCPAPELRRGPSVFLFPPKPKDTLMISRTPEVTCVVVDVSHEDPEVKFNWYVDGVEVHNAKTKPREEQYNSTYRVVSVLTVLHQDWLNGKEYKCKVSNKALPAPIEKTISKAKGQPREPQVYTLPPSREEMTKNQVSLTCLVKGFYPSDIAVEWESNGQPENNYKTTPPYLDSDGSFFLYSKLTVDKSRWQQGNVFSCSVMHEALHNHYTQESLSLSP light 1: AVVLTQTASPVSAAVGGTVTIRCQATENIYSGLAWYQQKPGQPPKVLIYYVSTLASGVPSRFKGSGSGTEYTLTISGVQCDDAATYYCQTYHDISNVTFGGGTKVEIKRTVAAPSVFIFPPSDEQLKSGTASVVCLLNNFYPREAKVQWKVDNALQSGNSQESVTEQDSKDCTYSLSSTLTLSKADYEKHKVYACEVTHQGLSSPVTKSFNRGEC heavy 2: QEQLEESGGDLVKPGASLTLTCTASGFSFYSSYWICWVRQAPGKGLEWIACIDTGSGSIDYASWVNGRFTISKTSSTTVTLQMTSLTVADTATYFCARDIGIDYNFWGPGTLVTVSSASTKGPSVFPLAPSSKSTSGGTAALGCLVKDYFPEPVTVSWNSGALTSGVHTFPAVLQSSGLYSLSSVVTVPSSSLGTQTYICNVNHKPSNTKVDKRVEPKSCDKTHTCPPCPAPELRRGPSVFLFPPKPKDTLMISRTPEVTCVVVDVSHEDPEVKFNWYVDGVEVHNAKTKPREEQYNSTYRVVSVLTVLHQDWLNGKEYKCKVSNKALPAPIEKTISKAKGQPREPQVYTLPPSRKEMTKNQVSLTCLVKGFYPSDIAVEWESNGQPENNYKTTPPYLDSDGSFFLYSKLTVDKSRWQQGNVFSCSVMHEALHNHYTQKSLSLSP light 2: AFELTQTPSFVEAAVGGTVTIKCQATQSISSYLNWYQQKPGQPPKLLIYYASTLASGVPSRFKGSGSGTEFSLTISGVECADAATYYCHYGISYVSFGGGTKVEIKRTVAAPSVFIFPPSDEQLKSGTASVVCLLNNFYPREAKVQWKVDNALQSGNSQESVTEQDSKDCTYSLSSTLTLSKADYEKHKVYACEVTHQGLSSPVTKSFNRGEC | no binding (tested: 5 microgram/mL) | no binding (tested: 5 microgram/mL) | 19 ng/mL | 59.4 ng/mL | 46.9 ng/mL | 33.1 ng/mL | 892 ng/mL | 17.7 ng/mL | 3.23 ng/mL | 0.606 ng/mL | no binding (tested: 5 microgram/mL) | no binding (tested: 5 microgram/mL) | 91.3% |  |  |  |  |  | 
2 | DQN0385ee//IC17 (bispecific antibody, human IgG1, kappa) heavy 1: QEQLEESGGDLVKPGASLTLTCTASGFSFYSSYWICWVRQAPGKGLEWIACIDTGSGSIDYASWVNGRFTISKTSSTTVTLQMTSLTVADTATYFCARDIGIDYNFWGPGTLVTVSSASTKGPSVFPLAPSSKSTSGGTAALGCLVKDYFPEPVTVSWNSGALTSGVHTFPAVLQSSGLYSLSSVVTVPSSSLGTQTYICNVNHKPSNTKVDKRVEPKSCDKTHTCPPCPAPELRRGPSVFLFPPKPKDTLMISRTPEVTCVVVDVSHEDPEVKFNWYVDGVEVHNAKTKPREEQYNSTYRVVSVLTVLHQDWLNGKEYKCKVSNKALPAPIEKTISKAKGQPREPQVYTLPPSREEMTKNQVSLTCLVKGFYPSDIAVEWESNGQPENNYKTTPPYLDSDGSFFLYSKLTVDKSRWQQGNVFSCSVMHEALHNHYTQESLSLSP light 1: AFELTQTPSFVEAAVGGTVTIKCQATQSISSYLNWYQQKPGQPPKLLIYYASTLASGVPSRFKGSGSGTEFSLTISGVECADAATYYCHYGISYVSFGGGTKVEIKRTVAAPSVFIFPPSDEQLKSGTASVVCLLNNFYPREAKVQWKVDNALQSGNSQESVTEQDSKDCTYSLSSTLTLSKADYEKHKVYACEVTHQGLSSPVTKSFNRGEC heavy 2: QVQLQQSGPQLVRPGASVKISCKASGYSFTSYWMHWVNQRPGQGLEWIGMIDPSYSETRLNQKFKDKATLTVDKSSSTAYMQLSSPTSEDSAVYYCALYGNYFDYWGQGTTLTVSSASTKGPSVFPLAPSSKSTSGGTAALGCLVKDYFPEPVTVSWNSGALTSGVHTFPAVLQSSGLYSLSSVVTVPSSSLGTQTYICNVNHKPSNTKVDKRVEPKSCDKTHTCPPCPAPELRRGPSVFLFPPKPKDTLMISRTPEVTCVVVDVSHEDPEVKFNWYVDGVEVHNAKTKPREEQYNSTYRVVSVLTVLHQDWLNGKEYKCKVSNKALPAPIEKTISKAKGQPREPQVYTLPPSRKEMTKNQVSLTCLVKGFYPSDIAVEWESNGQPENNYKTTPPYLDSDGSFFLYSKLTVDKSRWQQGNVFSCSVMHEALHNHYTQKSLSLSP light 2: DIQMTQSSSSFSVSLGDRVTITCKASEDIYNRLAWYQQKPGNAPRLLISGATSLETGVPSRFSGSGSGKDYTLSITSLQTEDVATYYCQQYWSTPYTFGGGTKLEVKRTVAAPSVFIFPPSDEQLKSGTASVVCLLNNFYPREAKVQWKVDNALQSGNSQESVTEQDSKDSTYSLSSTLTLSKADYEKHKVYACEVTHQGLSSPVTKSFNRGEC |  |  |  |  |  |  |  |  |  |  |  |  |  | 0.1% | 0.1% | 0.3% | 0.1% | 0.1% | ~0.06 microgram/mL
